The term stoichiometry N denotes the number of molecules, sites or subunits per partner or assembly.

These results are taken from paper PMC12632113 (Cell & Bioscience, 2025).

This data set concerns the molecule itself. Nature of the data set: native gel or EMSA. A general note: In EMSA bound probe runs differently from free probe, usually more slowly.

B1: polypyrimidine tract-binding protein 1 (PTBP1), wild type (natural protein)
chain: not shown
As for B1, the “stoichiometry N” value came to 2.
